Experimental data reported in the RNAGym collection of RNA variant scans (doi:10.7554/elife.80360).

B1: Hairpin Ribozyme (parent)
chain: GUCCUCUUUCACGUGCGCGUGAAAGAGAGAAGUGAACCAGAGAAACACACGUUGUGGUAUAUUACCUGGUA

Variants of: B1
Assay: self-cleavage, relative activity (ratio to wild type); higher = more cleavage; co-transcriptional

Variant | self-cleavage
GUCCUCUUUCACGUGCGCGUGAAAGAGAGAAGUGAACCAGAGAAGCACACGUUAUGGUAUAUUACCUGGUA [A45G G54A] | 0.218
GUCCUCUUUCACGUGCGCGUGAAAGAGAGAAGUGAACCAGAGAAGCACACGUUUUGGUAUAUUACCUGGUA [A45G G54U] | 0.2
GUCCUCUUUCACGUGCGCGUGAAAGAGAGAAGUGAACCAGAGAACCACACGUUGUGGUAUAUUACCUUGUA [A45C G68U] | 0.166
GUCCUCUUUCACGUGCGCGUGAAAGAGAGAAGUGAACCAGAGAACCACACGUUGUGGUAUAUUACCUAGUA [A45C G68A] | 0.229
GUCCUCUUUCACGUGCGCGUGAAAGAGAGAAGUGAACCAGAGAAUCACAUGUUGUGGUAUAUUACCUGGUA [A45U C50U] | 0.123
GUCCUCUUUCACGUGCGCGUGAAAGAGAGAAGUGAACCAGAGAAGCCCACGUUGUGGUAUAUUACCUGGUA [A45G A47C] | 0.228
GUCCUCUUUCACGUGCGCGUGAAAGAGAGAAGUGAACCAGAGAAGCUCACGUUGUGGUAUAUUACCUGGUA [A45G A47U] | 0.113
GUCCUCUUUCACGUGCGCGUGAAAGAGAGAAGUGAACCAGAGAAUCAGACGUUGUGGUAUAUUACCUGGUA [A45U C48G] | 0.14
GUCCUCUUUCACGUGCGCGUGAAAGAGAGAAGUGAACCAGAGAAGCACACGUUGUGGUAUAUUACUUGGUA [A45G C66U] | 0.218
GUCCUCUUUCACGUGCGCGUGAAAGAGAGAAGUGAACCAGAGAAGCACACGUUGUGGUAAAUUACCUGGUA [A45G U60A] | 0.105
GUCCUCUUUCACGUGCGCGUGAAAGAGAGAAGUGAACCAGAGAAGCACACGUGGUGGUAUAUUACCUGGUA [A45G U53G] | 0.108
GUCCUCUUUCACGUGCGCGUGAAAGAGAGAAGUGAACCAGAGAAGCACACGUCGUGGUAUAUUACCUGGUA [A45G U53C] | 0.4
GUCCUCUUUCACGUGCGCGUGAAAGAGAGAAGUGAACCAGAGAACCACACGUUGUGGUAUAUUACCAGGUA [A45C U67A] | 0.118
GUCCUCUUUCACGUGCGCGUGAAAGAGAGAAGUGAACCAGAGAACCACACGUUGUGGUAUAAUACCUGGUA [A45C U62A] | 0.332
GUCCUCUUUCACGUGCGCGUGAAAGAGAGAAGUGAACCAGAGAACCACACGUUGUGGUAUAGUACCUGGUA [A45C U62G] | 0.0741
GUCCUCUUUCACGUGCGCGUGAAAGAGAGAAGUGAACCAGAGAAUUACACGUUGUGGUAUAUUACCUGGUA [A45U C46U] | 0.12
GUCCUCUUUCACGUGCGCGUGAAAGAGAGAAGUGAACCAGAGAAUCACACGUUGUGGUCUAUUACCUGGUA [A45U A59C] | 0.285
GUCCUCUUUCACGUGCGCGUGAAAGAGAGAAGUGAACCAGAGAAUCACACGUUGUGGUGUAUUACCUGGUA [A45U A59G] | 0.0526
GUCCUCUUUCACGUGCGCGUGAAAGAGAGAAGUGAACCAGAGAAUCACACGUUGUGGUUUAUUACCUGGUA [A45U A59U] | 0.154
GUCCUCUUUCACGUGCGCGUGAAAGAGAGAAGUGAACCAGAGAAUCACUCGUUGUGGUAUAUUACCUGGUA [A45U A49U] | 0.17
GUCCUCUUUCACGUGCGCGUGAAAGAGAGAAGUGAACCAGAGAAGCACACGUUGUGUUAUAUUACCUGGUA [A45G G57U] | 0.175
GUCCUCUUUCACGUGCGCGUGAAAGAGAGAAGUGAACCAGAGAAGCACACGUUGUGGUAUAUUACCGGGUA [A45G U67G] | 0.0311
GUCCUCUUUCACGUGCGCGUGAAAGAGAGAAGUGAACCAGAGAACCACACGUUGUGGUAUAUUACCUGCUA [A45C G69C] | 0.193
GUCCUCUUUCACGUGCGCGUGAAAGAGAGAAGUGAACCAGAGAACCACACGUUGUGGUAUAUUACCUGUUA [A45C G69U] | 0.215
GUCCUCUUUCACGUGCGCGUGAAAGAGAGAAGUGAACCAGAGAAGCACACGUUGUGGUUUAUUACCUGGUA [A45G A59U] | 0.0542
GUCCUCUUUCACGUGCGCGUGAAAGAGAGAAGUGAACCAGAGAAGCACACGUUGUGGUGUAUUACCUGGUA [A45G A59G] | 0.174

Variant | self-cleavage
GUCCUCUUUCACGUGCGCGUGAAAGAGAGAAGUGAACCAGAGAAUCACACGUUGUGGUAUACUACCUGGUA [A45U U62C] | 0.127
GUCCUCUUUCACGUGCGCGUGAAAGAGAGAAGUGAACCAGAGAACCACACGUUGUGAUAUAUUACCUGGUA [A45C G57A] | 0.115
GUCCUCUUUCACGUGCGCGUGAAAGAGAGAAGUGAACCAGAGAAUCACACGGUGUGGUAUAUUACCUGGUA [A45U U52G] | 0.122
GUCCUCUUUCACGUGCGCGUGAAAGAGAGAAGUGAACCAGAGAAUCACACGCUGUGGUAUAUUACCUGGUA [A45U U52C] | 0.103
GUCCUCUUUCACGUGCGCGUGAAAGAGAGAAGUGAACCAGAGAAGCACACGUUGUGGUAUAUAACCUGGUA [A45G U63A] | 0.124
GUCCUCUUUCACGUGCGCGUGAAAGAGAGAAGUGAACCAGAGAAUCACACGUUGUGGUAUUUUACCUGGUA [A45U A61U] | 0.122
GUCCUCUUUCACGUGCGCGUGAAAGAGAGAAGUGAACCAGAGAAUCACACGUUGUGGUAUCUUACCUGGUA [A45U A61C] | 0.0246
GUCCUCUUUCACGUGCGCGUGAAAGAGAGAAGUGAACCAGAGAAUCACACUUUGUGGUAUAUUACCUGGUA [A45U G51U] | 0.209
GUCCUCUUUCACGUGCGCGUGAAAGAGAGAAGUGAACCAGAGAAGCACACGUUGUUGUAUAUUACCUGGUA [A45G G56U] | 0.131
GUCCUCUUUCACGUGCGCGUGAAAGAGAGAAGUGAACCAGAGAACCACACGUUGUGGUAUAUUACCUGGGA [A45C U70G] | 0.133
GUCCUCUUUCACGUGCGCGUGAAAGAGAGAAGUGAACCAGAGAAUCACACGUUGUGGUAUAUUACCUCGUA [A45U G68C] | 0.202
GUCCUCUUUCACGUGCGCGUGAAAGAGAGAAGUGAACCAGAGAAUCACACGUUGUGGUAUAUUACCUGGUG [A45U A71G] | 0.189
GUCCUCUUUCACGUGCGCGUGAAAGAGAGAAGUGAACCAGAGAAUCACACGUUGUGGUAUAUUACCUGGUU [A45U A71U] | 0.156
GUCCUCUUUCACGUGCGCGUGAAAGAGAGAAGUGAACCAGAGAAUCACACGUUGUGGUAUAUUACCUGGUC [A45U A71C] | 0.286
GUCCUCUUUCACGUGCGCGUGAAAGAGAGAAGUGAACCAGAGAAGCAUACGUUGUGGUAUAUUACCUGGUA [A45G C48U] | 0.0892
GUCCUCUUUCACGUGCGCGUGAAAGAGAGAAGUGAACCAGAGAAGCAGACGUUGUGGUAUAUUACCUGGUA [A45G C48G] | 0.113
GUCCUCUUUCACGUGCGCGUGAAAGAGAGAAGUGAACCAGAGAAGCACACGUUGUGGUAUAUUACCUGGGA [A45G U70G] | 0.137
GUCCUCUUUCACGUGCGCGUGAAAGAGAGAAGUGAACCAGAGAAGCACACGUUGUGGUAUAUUACCUGGAA [A45G U70A] | 0.184
GUCCUCUUUCACGUGCGCGUGAAAGAGAGAAGUGAACCAGAGAAGCACACGUUGUGGUAUAUUACCUCGUA [A45G G68C] | 0.136
GUCCUCUUUCACGUGCGCGUGAAAGAGAGAAGUGAACCAGAGAAUCACACGUAGUGGUAUAUUACCUGGUA [A45U U53A] | 0.151
GUCCUCUUUCACGUGCGCGUGAAAGAGAGAAGUGAACCAGAGAAUCACACGUGGUGGUAUAUUACCUGGUA [A45U U53G] | 0.263
GUCCUCUUUCACGUGCGCGUGAAAGAGAGAAGUGAACCAGAGAAGCACACUUUGUGGUAUAUUACCUGGUA [A45G G51U] | 0.271
GUCCUCUUUCACGUGCGCGUGAAAGAGAGAAGUGAACCAGAGAAUCACACGUUGUGGUAUAUUUCCUGGUA [A45U A64U] | 0.0728
GUCCUCUUUCACGUGCGCGUGAAAGAGAGAAGUGAACCAGAGAAUCACACGUUGUGGUAUAUUGCCUGGUA [A45U A64G] | 0.16
GUCCUCUUUCACGUGCGCGUGAAAGAGAGAAGUGAACCAGAGAAGCACACGUUGCGGUAUAUUACCUGGUA [A45G U55C] | 0.124
GUCCUCUUUCACGUGCGCGUGAAAGAGAGAAGUGAACCAGAGAAGCACACGUUGGGGUAUAUUACCUGGUA [A45G U55G] | 0

Variant | self-cleavage
GUCCUCUUUCACGUGCGCGUGAAAGAGAGAAGUGAACCAGAGAACCACACGUUGUGGUAUAUCACCUGGUA [A45C U63C] | 0.0707
GUCCUCUUUCACGUGCGCGUGAAAGAGAGAAGUGAACCAGAGAACCACACGUUGUGGUAUAUGACCUGGUA [A45C U63G] | 0.136
GUCCUCUUUCACGUGCGCGUGAAAGAGAGAAGUGAACCAGAGAACCACACGUAGUGGUAUAUUACCUGGUA [A45C U53A] | 0.123
GUCCUCUUUCACGUGCGCGUGAAAGAGAGAAGUGAACCAGAGAACCACACGUCGUGGUAUAUUACCUGGUA [A45C U53C] | 0.0463
GUCCUCUUUCACGUGCGCGUGAAAGAGAGAAGUGAACCAGAGAAGGACACGUUGUGGUAUAUUACCUGGUA [A45G C46G] | 0.181
GUCCUCUUUCACGUGCGCGUGAAAGAGAGAAGUGAACCAGAGAACCACACGUUGAGGUAUAUUACCUGGUA [A45C U55A] | 0.192
GUCCUCUUUCACGUGCGCGUGAAAGAGAGAAGUGAACCAGAGAAUCACACGUUGUGUUAUAUUACCUGGUA [A45U G57U] | 0.166
GUCCUCUUUCACGUGCGCGUGAAAGAGAGAAGUGAACCAGAGAAUCUCACGUUGUGGUAUAUUACCUGGUA [A45U A47U] | 0.0501
GUCCUCUUUCACGUGCGCGUGAAAGAGAGAAGUGAACCAGAGAAUCGCACGUUGUGGUAUAUUACCUGGUA [A45U A47G] | 0.178
GUCCUCUUUCACGUGCGCGUGAAAGAGAGAAGUGAACCAGAGAAUCCCACGUUGUGGUAUAUUACCUGGUA [A45U A47C] | 0.132
GUCCUCUUUCACGUGCGCGUGAAAGAGAGAAGUGAACCAGAGAAUCACACGUUGUCGUAUAUUACCUGGUA [A45U G56C] | 0.198
GUCCUCUUUCACGUGCGCGUGAAAGAGAGAAGUGAACCAGAGAAUCACACGUUGUGGUAUAUUAUCUGGUA [A45U C65U] | 0.175
GUCCUCUUUCACGUGCGCGUGAAAGAGAGAAGUGAACCAGAGAAUCACACGUUGUGGUAUAUUACCUGCUA [A45U G69C] | 0.0735
GUCCUCUUUCACGUGCGCGUGAAAGAGAGAAGUGAACCAGAGAACCACACGUUGUGGUAGAUUACCUGGUA [A45C U60G] | 0.165
GUCCUCUUUCACGUGCGCGUGAAAGAGAGAAGUGAACCAGAGAACCACACGUUGUGGCAUAUUACCUGGUA [A45C U58C] | 0.0787
GUCCUCUUUCACGUGCGCGUGAAAGAGAGAAGUGAACCAGAGAAUCACACGUUGUGGUAAAUUACCUGGUA [A45U U60A] | 0.147
GUCCUCUUUCACGUGCGCGUGAAAGAGAGAAGUGAACCAGAGAAUCACACGUUGUGGUAGAUUACCUGGUA [A45U U60G] | 0.188
GUCCUCUUUCACGUGCGCGUGAAAGAGAGAAGUGAACCAGAGAAGCACACGUUGUGGUAUAUUACCUGGUG [A45G A71G] | 0.269
GUCCUCUUUCACGUGCGCGUGAAAGAGAGAAGUGAACCAGAGAAGCACACGUUGUGGUAUAUUACCUGGUU [A45G A71U] | 0.0799
GUCCUCUUUCACGUGCGCGUGAAAGAGAGAAGUGAACCAGAGAAGCACACGUUGUGGUAUAUUACCUGGUC [A45G A71C] | 0.399
GUCCUCUUUCACGUGCGCGUGAAAGAGAGAAGUGAACCAGAGAAGCACACGUUGUGGUAUAUUACCUGAUA [A45G G69A] | 0.117
GUCCUCUUUCACGUGCGCGUGAAAGAGAGAAGUGAACCAGAGAAGCACACGUUGUGGUAUAUUACCUGCUA [A45G G69C] | 0.171
GUCCUCUUUCACGUGCGCGUGAAAGAGAGAAGUGAACCAGAGAAGCACACGUUGUGGUAUAUUACCUGUUA [A45G G69U] | 0.141
GUCCUCUUUCACGUGCGCGUGAAAGAGAGAAGUGAACCAGAGAAGCACACGUUGUGGGAUAUUACCUGGUA [A45G U58G] | 0.199
